Reference: paper PMC10010325

Legend:
[1] = molecular target: Fcγ receptor type IIIA (CD16A), low affinity F158 (UniProt P08637); assay: not named in legend (luminescence read-out, antibody titration on CD16A F158); details: value read at the highest antibody concentration, log10(µg/mL) about -1; parent: est. 4400; read off a plot
[2] = molecular target: human CLDN18.2 (Claudin18.2), P56856-2; assay: not named in legend (MFI read-out, antibody titration on CLDN18.2); details: value read at the highest antibody concentration, log10(µg/mL) about 1.5; read off a plot

UniProt P08637, sequence (P08637 17-254): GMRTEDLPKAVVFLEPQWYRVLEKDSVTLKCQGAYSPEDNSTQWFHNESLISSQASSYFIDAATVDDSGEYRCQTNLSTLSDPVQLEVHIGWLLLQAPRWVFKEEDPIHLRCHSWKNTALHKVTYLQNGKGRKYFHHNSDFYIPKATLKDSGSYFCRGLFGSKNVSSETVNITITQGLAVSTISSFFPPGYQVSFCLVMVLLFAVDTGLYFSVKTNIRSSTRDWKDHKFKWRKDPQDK

response [1]: 5000 luminescence
response [2]: 35000 MFI
Substance: ZL-1211 wild-type (WT) Fc Fc mutations for enhanced ADCC (substitutions not printed)
